# Source: patent EP4786492A1
# What was measured:
# [1] = biological target: human delta-like ligand 3 (DLL3) on SHP77 cells (human) (UniProt Q9NYJ7); assay: FACS on SHP77 cells
# [2] = biological target: DLL3 endogenously expressed on NCI-H82 cells (UniProt Q9NYJ7); assay: FACS on NCI-H82 cells; antibody 4 nM
# [3] = biological target: DLL3 endogenously expressed on NCI-H82 cells (UniProt Q9NYJ7); assay: FACS on NCI-H82 cells; antibody 20 nM
# [4] = biological target: DLL3 endogenously expressed on NCI-H82 cells (UniProt Q9NYJ7); assay: FACS on NCI-H82 cells; antibody 0.8 nM
# [5] = biological target: DLL3 endogenously expressed on NCI-H82 cells (UniProt Q9NYJ7); assay: FACS on NCI-H82 cells; antibody 100 nM
# [6] = biological target: DLL3 endogenously expressed on NCI-H82 cells (UniProt Q9NYJ7); assay: FACS on NCI-H82 cells; antibody 0.16 nM
# [7] = biological target: human DLL3 protein expressed on CHO-K1 recombinant cells (human DLL3 extracellular segment fused to EpCAM transmembrane and intracellular regions) (human) (UniProt Q9NYJ7); assay: FACS, CHO-K1 hDLL3 cells, 4 nM antibody
# human DLL3 protein expressed on CHO-K1 recombinant cells (human DLL3 extracellular segment fused to EpCAM transmembrane and intracellular regions) (human), sequence (Q9NYJ7 other isoform, or with tags, fused parts or gaps limits assumed): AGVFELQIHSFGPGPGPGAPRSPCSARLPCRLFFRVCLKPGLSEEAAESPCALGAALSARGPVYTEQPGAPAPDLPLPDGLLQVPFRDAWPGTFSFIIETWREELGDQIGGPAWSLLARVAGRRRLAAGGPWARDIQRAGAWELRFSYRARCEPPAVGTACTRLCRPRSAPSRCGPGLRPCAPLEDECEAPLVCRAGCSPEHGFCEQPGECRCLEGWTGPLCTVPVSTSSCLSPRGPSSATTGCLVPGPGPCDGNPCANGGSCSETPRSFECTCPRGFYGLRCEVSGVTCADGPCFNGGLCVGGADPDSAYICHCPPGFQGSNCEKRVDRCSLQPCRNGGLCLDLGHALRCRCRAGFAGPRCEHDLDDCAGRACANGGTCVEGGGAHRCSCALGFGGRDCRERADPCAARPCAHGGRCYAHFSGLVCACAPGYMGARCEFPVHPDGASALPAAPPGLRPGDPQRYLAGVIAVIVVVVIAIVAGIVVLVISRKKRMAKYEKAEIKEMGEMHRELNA
# [8] = biological target: mouse DLL3 on CHO-K1-mDLL3 cells (mouse) (UniProt O88516); assay: FACS, CHO-K1-mDLL3 cells, 4 nM antibody
# mouse DLL3 on CHO-K1-mDLL3 cells (mouse), sequence (O88516 other isoform, or with tags, fused parts or gaps limits assumed): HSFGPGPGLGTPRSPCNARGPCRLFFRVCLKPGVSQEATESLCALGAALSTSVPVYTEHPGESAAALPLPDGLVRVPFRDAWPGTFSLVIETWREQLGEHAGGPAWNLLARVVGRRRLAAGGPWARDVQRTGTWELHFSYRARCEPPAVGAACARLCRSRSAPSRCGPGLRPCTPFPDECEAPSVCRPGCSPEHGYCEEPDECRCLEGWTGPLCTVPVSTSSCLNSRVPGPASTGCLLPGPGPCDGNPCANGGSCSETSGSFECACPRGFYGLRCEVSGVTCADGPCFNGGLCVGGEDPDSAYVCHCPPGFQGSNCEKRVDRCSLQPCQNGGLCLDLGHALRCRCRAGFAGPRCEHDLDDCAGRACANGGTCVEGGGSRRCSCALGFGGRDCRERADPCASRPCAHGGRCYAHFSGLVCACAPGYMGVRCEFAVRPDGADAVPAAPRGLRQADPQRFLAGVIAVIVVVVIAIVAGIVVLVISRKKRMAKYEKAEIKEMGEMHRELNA
# [9] = biological target: DLL3 endogenously expressed on NCI-H82 cells (UniProt Q9NYJ7); assay: FACS on NCI-H82 cells; antibody 0.032 nM
# [10] = biological target: human DLL3 protein expressed on CHO-K1 recombinant cells (human DLL3 extracellular segment fused to EpCAM transmembrane and intracellular regions) (human) (UniProt Q9NYJ7); assay: FACS, CHO-K1 hDLL3 cells, 20 nM antibody
# [11] = biological target: mouse DLL3 on CHO-K1-mDLL3 cells (mouse) (UniProt O88516); assay: FACS, CHO-K1-mDLL3 cells, 20 nM antibody
# [12] = biological target: DLL3 endogenously expressed on NCI-H82 cells (UniProt Q9NYJ7); assay: FACS on NCI-H82 cells; antibody 0.0064 nM
# [13] = biological target: human DLL3 protein expressed on CHO-K1 recombinant cells (human DLL3 extracellular segment fused to EpCAM transmembrane and intracellular regions) (human) (UniProt Q9NYJ7); assay: FACS, CHO-K1 hDLL3 cells, 0.8 nM antibody
# [14] = biological target: human DLL3 protein expressed on CHO-K1 recombinant cells (human DLL3 extracellular segment fused to EpCAM transmembrane and intracellular regions) (human) (UniProt Q9NYJ7); assay: FACS, CHO-K1 hDLL3 cells, 100 nM antibody
# [15] = biological target: mouse DLL3 on CHO-K1-mDLL3 cells (mouse) (UniProt O88516); assay: FACS, CHO-K1-mDLL3 cells, 0.8 nM antibody
# [16] = biological target: mouse DLL3 on CHO-K1-mDLL3 cells (mouse) (UniProt O88516); assay: FACS, CHO-K1-mDLL3 cells, 100 nM antibody
# [17] = biological target: DLL3 endogenously expressed on NCI-H82 cells (UniProt Q9NYJ7); assay: FACS on NCI-H82 cells; antibody 0.00128 nM
# [18] = biological target: human DLL3 protein expressed on CHO-K1 recombinant cells (human DLL3 extracellular segment fused to EpCAM transmembrane and intracellular regions) (human) (UniProt Q9NYJ7); assay: FACS, CHO-K1 hDLL3 cells, 0.16 nM antibody
# [19] = biological target: mouse DLL3 on CHO-K1-mDLL3 cells (mouse) (UniProt O88516); assay: FACS, CHO-K1-mDLL3 cells, 0.16 nM antibody
# [20] = biological target: human DLL3 protein expressed on CHO-K1 recombinant cells (human DLL3 extracellular segment fused to EpCAM transmembrane and intracellular regions) (human) (UniProt Q9NYJ7); assay: FACS, CHO-K1 hDLL3 cells, 0.032 nM antibody
# [21] = biological target: monkey DLL3 on CHO-K1-cyno DLL3 cells (cynomolgus monkey); assay: FACS, CHO-K1-cyno DLL3 cells, 4 nM antibody
# monkey DLL3 on CHO-K1-cyno DLL3 cells (cynomolgus monkey), sequence (chain, as listed by the source limits assumed): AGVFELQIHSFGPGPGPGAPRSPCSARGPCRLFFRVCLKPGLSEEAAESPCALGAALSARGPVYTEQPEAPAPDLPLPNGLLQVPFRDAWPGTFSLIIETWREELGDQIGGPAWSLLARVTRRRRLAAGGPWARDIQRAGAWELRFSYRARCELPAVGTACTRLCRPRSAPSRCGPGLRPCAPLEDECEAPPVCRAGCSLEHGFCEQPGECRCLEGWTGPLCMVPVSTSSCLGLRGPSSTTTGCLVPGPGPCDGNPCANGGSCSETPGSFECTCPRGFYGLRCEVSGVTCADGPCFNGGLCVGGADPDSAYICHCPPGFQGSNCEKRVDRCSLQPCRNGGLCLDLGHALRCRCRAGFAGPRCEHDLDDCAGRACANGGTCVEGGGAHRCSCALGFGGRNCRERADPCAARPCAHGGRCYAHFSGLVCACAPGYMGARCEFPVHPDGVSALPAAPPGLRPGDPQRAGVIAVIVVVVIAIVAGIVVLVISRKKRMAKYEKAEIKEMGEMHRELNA
# [22] = biological target: mouse DLL3 on CHO-K1-mDLL3 cells (mouse) (UniProt O88516); assay: FACS, CHO-K1-mDLL3 cells, 0.032 nM antibody
# [23] = biological target: human DLL3 protein expressed on CHO-K1 recombinant cells (human DLL3 extracellular segment fused to EpCAM transmembrane and intracellular regions) (human) (UniProt Q9NYJ7); assay: FACS, CHO-K1 hDLL3 cells, 0.0064 nM antibody
# [24] = biological target: monkey DLL3 on CHO-K1-cyno DLL3 cells (cynomolgus monkey); assay: FACS, CHO-K1-cyno DLL3 cells, 20 nM antibody
# [25] = biological target: mouse DLL3 on CHO-K1-mDLL3 cells (mouse) (UniProt O88516); assay: FACS, CHO-K1-mDLL3 cells, 0.0064 nM antibody
# [26] = biological target: human DLL3 protein expressed on CHO-K1 recombinant cells (human DLL3 extracellular segment fused to EpCAM transmembrane and intracellular regions) (human) (UniProt Q9NYJ7); assay: FACS, CHO-K1 hDLL3 cells, 0.00128 nM antibody
# [27] = biological target: monkey DLL3 on CHO-K1-cyno DLL3 cells (cynomolgus monkey); assay: FACS, CHO-K1-cyno DLL3 cells, 0.8 nM antibody
# [28] = biological target: monkey DLL3 on CHO-K1-cyno DLL3 cells (cynomolgus monkey); assay: FACS, CHO-K1-cyno DLL3 cells, 100 nM antibody
# [29] = biological target: mouse DLL3 on CHO-K1-mDLL3 cells (mouse) (UniProt O88516); assay: FACS, CHO-K1-mDLL3 cells, 0.00128 nM antibody
# [30] = biological target: monkey DLL3 on CHO-K1-cyno DLL3 cells (cynomolgus monkey); assay: FACS, CHO-K1-cyno DLL3 cells, 0.16 nM antibody
# [31] = biological target: monkey DLL3 on CHO-K1-cyno DLL3 cells (cynomolgus monkey); assay: FACS, CHO-K1-cyno DLL3 cells, 0.032 nM antibody
# [32] = biological target: monkey DLL3 on CHO-K1-cyno DLL3 cells (cynomolgus monkey); assay: FACS, CHO-K1-cyno DLL3 cells, 0.0064 nM antibody
# [33] = biological target: monkey DLL3 on CHO-K1-cyno DLL3 cells (cynomolgus monkey); assay: FACS, CHO-K1-cyno DLL3 cells, 0.00128 nM antibody
# [34] = biological target: human DLL1 protein (Acro, Cat. No. DL1-H52H8) (human) (UniProt O00548); assay: ELISA, coated hDLL1; maximum over 0.1, 1, 10, 100 nM antibody
# human DLL1 protein (Acro, Cat. No. DL1-H52H8) (human), sequence (O00548 18-540 limits assumed): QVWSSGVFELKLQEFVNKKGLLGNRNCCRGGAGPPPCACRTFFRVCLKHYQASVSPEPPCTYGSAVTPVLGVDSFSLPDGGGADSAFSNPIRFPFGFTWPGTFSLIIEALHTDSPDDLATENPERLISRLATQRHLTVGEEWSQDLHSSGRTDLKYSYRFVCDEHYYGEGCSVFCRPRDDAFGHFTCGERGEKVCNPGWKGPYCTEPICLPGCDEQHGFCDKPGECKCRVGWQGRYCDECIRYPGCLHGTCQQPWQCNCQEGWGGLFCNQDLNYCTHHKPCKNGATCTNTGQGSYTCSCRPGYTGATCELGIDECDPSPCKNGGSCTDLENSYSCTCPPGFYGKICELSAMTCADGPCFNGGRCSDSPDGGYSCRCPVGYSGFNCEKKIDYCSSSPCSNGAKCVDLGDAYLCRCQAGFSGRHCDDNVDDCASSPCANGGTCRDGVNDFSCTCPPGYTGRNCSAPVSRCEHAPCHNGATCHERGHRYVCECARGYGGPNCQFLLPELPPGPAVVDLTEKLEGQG
# [35] = biological target: human DLL4 protein (Acro, Cat. No. DL4-H5227) (human) (UniProt Q9NR61); assay: ELISA, coated hDLL4; maximum over 0.1, 1, 10, 100 nM antibody
# human DLL4 protein (Acro, Cat. No. DL4-H5227) (human), sequence (Q9NR61 27-524 limits assumed): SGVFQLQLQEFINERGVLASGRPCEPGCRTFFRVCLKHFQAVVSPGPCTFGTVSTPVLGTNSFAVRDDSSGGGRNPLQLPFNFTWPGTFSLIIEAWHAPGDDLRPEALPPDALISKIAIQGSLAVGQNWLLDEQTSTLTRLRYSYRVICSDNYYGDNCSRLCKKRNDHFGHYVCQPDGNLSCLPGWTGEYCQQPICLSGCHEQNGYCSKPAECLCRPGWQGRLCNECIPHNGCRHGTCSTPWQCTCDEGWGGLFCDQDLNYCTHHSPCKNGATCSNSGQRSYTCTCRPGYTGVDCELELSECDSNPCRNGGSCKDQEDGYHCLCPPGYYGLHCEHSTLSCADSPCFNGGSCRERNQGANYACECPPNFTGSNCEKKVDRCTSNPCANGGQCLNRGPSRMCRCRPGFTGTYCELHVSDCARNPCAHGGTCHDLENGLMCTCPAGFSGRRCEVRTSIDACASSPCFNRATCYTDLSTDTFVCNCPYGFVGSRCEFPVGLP
# [36] = biological target: human DLL3 protein (extracellular segment, His tag) (human) (UniProt Q9NYJ7); assay: SPR (Biacore 8K), antibody captured on Protein A chip, DLL3 antigen in solution, 1:1 Langmuir fit
# human DLL3 protein (extracellular segment, His tag) (human), sequence (Q9NYJ7 27-492): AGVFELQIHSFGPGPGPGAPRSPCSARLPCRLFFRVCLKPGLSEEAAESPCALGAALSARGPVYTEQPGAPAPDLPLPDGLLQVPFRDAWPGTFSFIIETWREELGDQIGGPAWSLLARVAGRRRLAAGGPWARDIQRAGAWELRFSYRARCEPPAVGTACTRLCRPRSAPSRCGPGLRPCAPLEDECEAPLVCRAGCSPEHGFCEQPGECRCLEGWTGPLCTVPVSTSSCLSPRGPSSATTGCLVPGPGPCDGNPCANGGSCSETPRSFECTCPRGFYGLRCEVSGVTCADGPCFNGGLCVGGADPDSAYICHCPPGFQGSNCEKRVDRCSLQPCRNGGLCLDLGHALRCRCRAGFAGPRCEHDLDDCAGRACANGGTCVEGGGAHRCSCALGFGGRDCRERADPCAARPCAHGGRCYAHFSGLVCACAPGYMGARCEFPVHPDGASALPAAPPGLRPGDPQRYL
# human delta-like ligand 3 (DLL3) on SHP77 cells (human), sequence (Q9NYJ7 27-618, stated change not applied): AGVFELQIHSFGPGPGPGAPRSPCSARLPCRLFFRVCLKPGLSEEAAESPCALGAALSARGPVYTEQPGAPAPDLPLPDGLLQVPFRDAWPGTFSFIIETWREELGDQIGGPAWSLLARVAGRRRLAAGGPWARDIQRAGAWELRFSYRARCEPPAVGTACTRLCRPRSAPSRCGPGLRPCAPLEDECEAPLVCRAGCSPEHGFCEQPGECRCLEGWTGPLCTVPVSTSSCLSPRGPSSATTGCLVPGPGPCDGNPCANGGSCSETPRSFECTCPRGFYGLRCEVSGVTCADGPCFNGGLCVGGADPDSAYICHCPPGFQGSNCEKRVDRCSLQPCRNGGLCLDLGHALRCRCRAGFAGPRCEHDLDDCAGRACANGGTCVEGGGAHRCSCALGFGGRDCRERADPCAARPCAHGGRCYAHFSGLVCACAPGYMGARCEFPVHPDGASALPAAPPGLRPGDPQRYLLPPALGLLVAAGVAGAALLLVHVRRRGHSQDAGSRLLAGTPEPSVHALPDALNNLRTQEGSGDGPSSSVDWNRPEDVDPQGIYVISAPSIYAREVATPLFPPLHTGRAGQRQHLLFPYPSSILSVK
# DLL3 endogenously expressed on NCI-H82 cells, sequence (Q9NYJ7 27-618): as the sequence (Q9NYJ7 27-618, stated change not applied) above
binder,measurement,setting,value
"Hab014VL1VH2-hFc (scFv, part only; not given: VL-VH linker and human IgG1 Fc, V domains shown, not shown: another chain or arm of the molecule; a dimerising Fc or GST; small tags and cut ends) VL: DIQMTQSPSSLSASVGDRVTITCKASEDIYNRLAWYQQKPGKVPKLLISGATSLETGVPSRFSGSGSGTDFTLTISSLQPEDVATYYCQQYWSLPWTFGGGTKVEIK VH: EVQLVQSGAEVKKPGASVKVSCKASGYTFTDYYMNWVRQAPGQRLEWMGDINPNHGDTGYNQKFTGRVTLTVDKSASTAYMELSSLRSEDTAVYYCARNFFYYGTTYGWYFDVWGQGTTVTVSS",MFI at 0.00128 nM,[1],90 MFI
same,MFI at 0.0064 nM,[1],94 MFI
same,MFI at 0.032 nM,[1],116 MFI
same,MFI at 0.16 nM,[1],192 MFI
same,MFI at 0.8 nM,[1],403 MFI
same,MFI at 4 nM,[1],628 MFI
same,MFI at 20 nM,[1],818 MFI
same,MFI at 100 nM,[1],1120 MFI
same,MFI,[2],625
same,MFI,[3],784
same,MFI,[4],580
same,MFI,[5],1100
same,MFI,[6],419
same,MFI,[7],14000 MFI
same,MFI,[8],311 MFI
same,MFI,[9],204
same,MFI,[10],15100 MFI
same,MFI,[11],355 MFI
same,MFI,[12],130
same,MFI,[13],9190 MFI
same,MFI,[14],16000 MFI
same,MFI,[15],268 MFI
same,MFI,[16],389 MFI
same,MFI,[17],110
same,MFI,[18],2130 MFI
same,MFI,[19],208 MFI
same,MFI,[20],698 MFI
same,MFI,[21],25900 MFI
same,MFI,[22],148 MFI
same,MFI,[23],306 MFI
same,MFI,[24],31500 MFI
same,MFI,[25],122 MFI
same,MFI,[26],221 MFI
same,MFI,[27],9960 MFI
same,MFI,[28],32800 MFI
same,MFI,[29],109 MFI
same,MFI,[30],2190 MFI
same,MFI,[31],692 MFI
same,MFI,[32],306 MFI
same,MFI,[33],215 MFI
same,Emax of OD450 nm binding value,[34],0.1 OD450 nm
same,Emax of OD450 nm binding value,[35],0.13 OD450 nm
same,Kd,[36],0.0772 nM
same,koff,[36],7.84e-05 s⁻¹
same,kon,[36],1.02e+06 M⁻¹ s⁻¹
"Hab015VL5VH6a-hFc (scFv, part only; not given: scFv linker and human IgG1 Fc, V domains shown, not shown: another chain or arm of the molecule; a dimerising Fc or GST; small tags and cut ends) VL: NIQMTQSPSSLSASVGDRVTITCKASENVGTYVSWYQQKPGKSPKLLIYGASNRYTGVPSRFSGSGSGTDFTLTISSLQPEDFATYYCGQFYSFPSTFGGGTKVEIK VH: EVQLVESGGGLVKPGGSLRLSCAASGITFSNFWMNWVRQAPEKGLEWVGQIRLKSDDYATHYAESVKGRFTISREDSKNTVYLQMNSLKTEDTAVYYCTTGYYFDYWGQGTTVTVSS",MFI at 0.00128 nM,[1],101 MFI
same,MFI at 0.0064 nM,[1],117 MFI
same,MFI at 0.032 nM,[1],171 MFI
same,MFI at 0.16 nM,[1],362 MFI
same,MFI at 0.8 nM,[1],663 MFI
same,MFI at 4 nM,[1],726 MFI
same,MFI at 20 nM,[1],770 MFI
same,MFI at 100 nM,[1],1090 MFI
same,MFI,[2],827
same,MFI,[3],937
same,MFI,[4],755
same,MFI,[5],1220
same,MFI,[6],430
same,MFI,[7],9720 MFI
same,MFI,[8],1230 MFI
same,MFI,[9],216
same,MFI,[10],10900 MFI
same,MFI,[11],1410 MFI
same,MFI,[12],127
same,MFI,[13],3960 MFI
same,MFI,[14],11300 MFI
same,MFI,[15],870 MFI
same,MFI,[16],1530 MFI
same,MFI,[17],117
same,MFI,[18],883 MFI
same,MFI,[19],390 MFI
same,MFI,[20],294 MFI
same,MFI,[21],6080 MFI
same,MFI,[22],185 MFI
same,MFI,[23],153 MFI
same,MFI,[24],6530 MFI
same,MFI,[25],131 MFI
same,MFI,[26],122 MFI
same,MFI,[27],4080 MFI
same,MFI,[28],6850 MFI
same,MFI,[29],121 MFI
same,MFI,[30],1150 MFI
same,MFI,[31],371 MFI
same,MFI,[32],169 MFI
same,MFI,[33],125 MFI
same,Emax of OD450 nm binding value,[34],0.71 OD450 nm
same,Emax of OD450 nm binding value,[35],0.82 OD450 nm
